According to patent US20250155449A1:

Tests used:
[1] = biological target: biotinylated IgG from human serum (Rockland Immunochemicals) (human); assay: BLI (Octet), equilibrium titration of soluble analyte on biotinylated hIgG on streptavidin tips
[2] = biological target: biotinylated IgG from human serum (Rockland Immunochemicals) (human); assay: BLI, kinetic fit values (1:1 model), soluble sample on immobilized hIgG
[3] = biological target: biotinylated IgG from human serum (Rockland Immunochemicals) (human); assay: BLI, equilibrium KD, soluble sample on immobilized hIgG

Ab+Inv HC17 (HP6017 with invertase fused to the C-terminus of the heavy chain by an AS(G4S)3 linker), sequence (heavy): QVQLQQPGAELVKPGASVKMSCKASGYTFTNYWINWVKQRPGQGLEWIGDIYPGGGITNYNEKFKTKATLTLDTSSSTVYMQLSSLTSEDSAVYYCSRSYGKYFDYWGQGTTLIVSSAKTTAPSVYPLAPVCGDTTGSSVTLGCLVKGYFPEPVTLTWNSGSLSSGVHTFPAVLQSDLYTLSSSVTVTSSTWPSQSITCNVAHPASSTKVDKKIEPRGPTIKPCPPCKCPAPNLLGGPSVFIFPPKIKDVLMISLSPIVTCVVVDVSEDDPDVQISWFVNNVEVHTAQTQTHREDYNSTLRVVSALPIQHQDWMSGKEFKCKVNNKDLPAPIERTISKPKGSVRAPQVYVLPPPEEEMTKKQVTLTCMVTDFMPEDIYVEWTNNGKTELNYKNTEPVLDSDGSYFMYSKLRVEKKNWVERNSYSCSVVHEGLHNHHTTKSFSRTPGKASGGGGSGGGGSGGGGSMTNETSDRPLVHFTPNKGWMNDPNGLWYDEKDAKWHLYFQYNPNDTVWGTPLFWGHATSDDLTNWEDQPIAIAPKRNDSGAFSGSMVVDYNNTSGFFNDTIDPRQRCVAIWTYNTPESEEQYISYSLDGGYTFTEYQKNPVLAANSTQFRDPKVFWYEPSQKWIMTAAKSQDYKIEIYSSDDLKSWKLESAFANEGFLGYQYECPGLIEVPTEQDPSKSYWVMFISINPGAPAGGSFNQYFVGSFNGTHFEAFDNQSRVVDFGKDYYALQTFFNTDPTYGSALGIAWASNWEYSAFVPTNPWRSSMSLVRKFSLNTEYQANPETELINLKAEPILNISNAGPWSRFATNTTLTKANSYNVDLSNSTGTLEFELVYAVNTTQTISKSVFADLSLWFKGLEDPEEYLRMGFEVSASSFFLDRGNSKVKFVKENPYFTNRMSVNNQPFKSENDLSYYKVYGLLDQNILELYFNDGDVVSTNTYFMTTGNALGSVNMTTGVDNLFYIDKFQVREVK
Ab+Inv HC17 (HP6017 with invertase fused to the C-terminus of the heavy chain by an AS(G4S)3 linker), sequence (light): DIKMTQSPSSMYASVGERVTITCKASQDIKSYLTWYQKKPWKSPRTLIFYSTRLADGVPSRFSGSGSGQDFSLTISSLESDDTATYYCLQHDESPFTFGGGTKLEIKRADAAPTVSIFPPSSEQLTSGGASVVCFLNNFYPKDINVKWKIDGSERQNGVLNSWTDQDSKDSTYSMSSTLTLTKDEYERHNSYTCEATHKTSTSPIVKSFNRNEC
Ab+Inv HC27 (HP6017 with invertase fused to the C-terminus of the heavy chain by an AS(G4S)5 linker), sequence (heavy): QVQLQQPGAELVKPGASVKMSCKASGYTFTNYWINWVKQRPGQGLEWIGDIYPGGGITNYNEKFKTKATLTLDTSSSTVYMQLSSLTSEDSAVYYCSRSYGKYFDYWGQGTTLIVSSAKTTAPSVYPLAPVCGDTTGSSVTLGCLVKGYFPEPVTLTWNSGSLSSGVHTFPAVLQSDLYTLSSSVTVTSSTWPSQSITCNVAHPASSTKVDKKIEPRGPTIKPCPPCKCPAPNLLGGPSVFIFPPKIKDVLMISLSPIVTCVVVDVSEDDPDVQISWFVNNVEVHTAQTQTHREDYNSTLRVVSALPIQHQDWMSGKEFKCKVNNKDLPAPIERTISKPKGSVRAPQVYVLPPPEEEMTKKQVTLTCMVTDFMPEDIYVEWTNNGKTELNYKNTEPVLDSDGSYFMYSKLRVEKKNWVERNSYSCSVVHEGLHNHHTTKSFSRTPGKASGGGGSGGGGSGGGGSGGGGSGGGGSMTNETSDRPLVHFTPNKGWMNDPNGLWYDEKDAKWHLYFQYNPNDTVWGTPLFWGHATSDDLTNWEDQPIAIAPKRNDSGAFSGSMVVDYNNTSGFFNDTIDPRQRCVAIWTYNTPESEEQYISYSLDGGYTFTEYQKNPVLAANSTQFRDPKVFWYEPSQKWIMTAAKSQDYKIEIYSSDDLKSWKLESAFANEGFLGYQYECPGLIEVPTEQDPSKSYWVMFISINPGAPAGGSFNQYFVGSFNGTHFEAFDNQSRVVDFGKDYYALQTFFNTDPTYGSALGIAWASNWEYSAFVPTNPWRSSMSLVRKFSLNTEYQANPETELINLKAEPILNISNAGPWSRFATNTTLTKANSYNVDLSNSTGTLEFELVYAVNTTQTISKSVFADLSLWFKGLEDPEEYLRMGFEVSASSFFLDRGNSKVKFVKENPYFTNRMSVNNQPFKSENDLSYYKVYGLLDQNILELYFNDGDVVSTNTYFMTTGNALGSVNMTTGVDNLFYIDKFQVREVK
recombinant antibody HP6017 (anti-human IgG, mouse IgG2a kappa), sequence (heavy): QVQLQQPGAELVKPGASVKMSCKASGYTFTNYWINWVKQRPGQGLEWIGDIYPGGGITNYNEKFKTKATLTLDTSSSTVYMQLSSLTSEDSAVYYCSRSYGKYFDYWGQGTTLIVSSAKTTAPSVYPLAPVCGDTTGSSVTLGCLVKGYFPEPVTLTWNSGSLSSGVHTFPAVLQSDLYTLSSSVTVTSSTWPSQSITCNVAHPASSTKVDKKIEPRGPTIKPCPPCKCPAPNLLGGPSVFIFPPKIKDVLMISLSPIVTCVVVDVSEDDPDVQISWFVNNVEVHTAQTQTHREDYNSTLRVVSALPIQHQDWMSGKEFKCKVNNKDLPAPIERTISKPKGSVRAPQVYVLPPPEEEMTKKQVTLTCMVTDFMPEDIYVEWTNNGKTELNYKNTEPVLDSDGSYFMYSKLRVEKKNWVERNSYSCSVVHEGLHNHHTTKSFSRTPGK
Ab+Inv LC15 (HP6017 with invertase fused to the C-terminus of the light chain by a (G4S)3 linker), sequence (light): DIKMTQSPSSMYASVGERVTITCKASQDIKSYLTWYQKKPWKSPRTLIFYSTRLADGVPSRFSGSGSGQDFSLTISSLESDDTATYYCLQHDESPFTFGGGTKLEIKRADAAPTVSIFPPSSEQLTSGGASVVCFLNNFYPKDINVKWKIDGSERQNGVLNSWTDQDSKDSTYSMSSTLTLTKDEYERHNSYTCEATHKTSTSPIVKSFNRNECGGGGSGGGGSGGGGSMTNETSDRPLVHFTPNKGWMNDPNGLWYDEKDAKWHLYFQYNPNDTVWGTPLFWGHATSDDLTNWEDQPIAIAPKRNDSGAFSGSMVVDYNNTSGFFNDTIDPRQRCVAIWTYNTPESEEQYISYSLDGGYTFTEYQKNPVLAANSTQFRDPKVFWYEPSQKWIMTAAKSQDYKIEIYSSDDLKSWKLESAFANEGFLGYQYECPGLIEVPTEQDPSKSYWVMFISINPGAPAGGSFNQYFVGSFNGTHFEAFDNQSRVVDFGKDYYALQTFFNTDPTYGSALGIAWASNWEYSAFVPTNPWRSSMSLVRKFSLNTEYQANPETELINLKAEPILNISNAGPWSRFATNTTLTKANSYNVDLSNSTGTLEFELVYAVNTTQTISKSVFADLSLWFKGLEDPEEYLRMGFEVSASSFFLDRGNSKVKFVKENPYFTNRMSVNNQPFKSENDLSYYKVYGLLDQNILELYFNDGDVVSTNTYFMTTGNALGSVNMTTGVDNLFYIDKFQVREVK
Ab+Inv LC25 (HP6017 with invertase fused to the C-terminus of the light chain by a (G4S)5 linker), sequence (light): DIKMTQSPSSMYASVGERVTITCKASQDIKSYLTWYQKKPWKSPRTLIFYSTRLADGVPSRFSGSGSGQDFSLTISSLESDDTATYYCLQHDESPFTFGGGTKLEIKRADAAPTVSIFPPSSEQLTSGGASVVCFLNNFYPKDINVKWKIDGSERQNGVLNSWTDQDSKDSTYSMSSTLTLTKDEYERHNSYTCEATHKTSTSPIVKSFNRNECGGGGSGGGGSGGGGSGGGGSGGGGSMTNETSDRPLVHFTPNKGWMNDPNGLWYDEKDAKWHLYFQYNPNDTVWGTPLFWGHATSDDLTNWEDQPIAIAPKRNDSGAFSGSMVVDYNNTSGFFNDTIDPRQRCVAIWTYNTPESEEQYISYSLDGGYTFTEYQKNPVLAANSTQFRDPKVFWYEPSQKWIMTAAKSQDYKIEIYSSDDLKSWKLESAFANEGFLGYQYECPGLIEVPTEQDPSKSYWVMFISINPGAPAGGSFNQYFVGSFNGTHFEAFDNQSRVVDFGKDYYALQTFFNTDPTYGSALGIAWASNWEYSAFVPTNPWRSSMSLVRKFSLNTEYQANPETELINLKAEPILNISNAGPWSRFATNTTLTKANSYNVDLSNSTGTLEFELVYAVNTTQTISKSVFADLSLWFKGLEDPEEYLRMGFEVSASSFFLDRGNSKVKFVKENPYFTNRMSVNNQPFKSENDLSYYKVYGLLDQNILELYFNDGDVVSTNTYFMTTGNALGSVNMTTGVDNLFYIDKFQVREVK

Row | Substance | EC50 (read off the curve) [1] [nM] | Kd [2] [nM] | koff [2] [s⁻¹] | kon [2] [M⁻¹ s⁻¹] | Kd [3] [nM]
1 | Ab+Inv HC17 (HP6017 with invertase fused to the C-terminus of the heavy chain by an AS(G4S)3 linker) | 20 | < 0.001 | < 1e-07 | 430000 | 21
2 | Ab+Inv HC27 (HP6017 with invertase fused to the C-terminus of the heavy chain by an AS(G4S)5 linker) | 30 | < 0.001 | < 1e-07 | 450000 | 25
3 | Ab+Inv LC15 (HP6017 with invertase fused to the C-terminus of the light chain by a (G4S)3 linker) | 20 | < 0.001 | < 1e-07 | 1.46e+06 | 16
4 | Ab+Inv LC25 (HP6017 with invertase fused to the C-terminus of the light chain by a (G4S)5 linker) | – | < 0.001 | < 1e-07 | 1.61e+06 | 17
5 | recombinant antibody HP6017 (anti-human IgG, mouse IgG2a kappa) | 20 | < 0.001 | < 1e-07 | 490000 | 18
